The text below walks through data of the supplement of paper PMC9732359.

± gives the uncertainty stated by the source.

A short description of the data set: protein stability index of a GFP-peptide fusion (yeast GPS) (PSI 1-4); higher = more stable; sorted into four equal gates, so the index is relative within each strain. The method in brief:
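The protein stability index of a peptide was calculated by multiplying its read frequency in each gate by that gate's number and adding the products. The peptides were tiled 17-residue stretches of yeast proteins, fused downstream of GFP on a Cherry-expressing plasmid and carried in yeast as a pooled library. Mid-log cultures in leucine-free medium were sorted into four equal gates by GFP/Cherry ratio, and each gate's plasmids were PCR-amplified and Illumina-sequenced.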

In the case of VSGDAAALFRLHKFLTK [SWI3], the protein stability index (doa10∆) turned out to be 2.92 ± 0.14, the protein stability index (pdr5∆) was found to be 2.6 ± 0.15, the protein stability index (san1∆) was 2.72 ± 0.098 and the protein stability index (ubr1∆) worked out at 3.08 ± 0.11.
Consider KEDADLKRMEILKSPHL [SIR4], for which the protein stability index is 2.88 ± 0.053 (doa10∆), 2.95 ± 0.077 (pdr5∆), 2.99 ± 0.053 (san1∆) and 3.08 ± 0.057 (ubr1∆).
PYQHPPNIFPNLTYYNE [ITC1] returned a protein stability index (doa10∆) of 2.68 ± 0.058, a protein stability index (pdr5∆) of 2.83 ± 0.045, a protein stability index (san1∆) of 2.66 ± 0.045 and a protein stability index (ubr1∆) of 2.76 ± 0.039.
For QSFQNPFTASQSNINTN [YIL149C/MLP2], in that order: 2.57 ± 0.067, 2.55 ± 0.044, 2.62 ± 0.053 and 2.73 ± 0.043.
In the case of KNKYLKDVLAQTSVTTN [SWP82], the protein stability index runs as follows: (doa10∆) 2.5 ± 0.065; (pdr5∆) 2.5 ± 0.06; (san1∆) 2.71 ± 0.098; (ubr1∆) 2.37 ± 0.044.
In the case of ARNLIEDEDDGESEKSS [RPC53], the protein stability index runs as follows: (doa10∆) 3.06 ± 0.12; (pdr5∆) 3.68 ± 0.18; (ubr1∆) 3.29 ± 0.11.
Turning to ERQQDELENFLDNFETK [YJL041W/NSP1], the protein stability index by setting is: (doa10∆) 3.23 ± 0.16; (pdr5∆) 3.29 ± 0.21; (san1∆) 3.48 ± 0.13; (ubr1∆) 3.38 ± 0.075.
Regarding LVKALEDIMVHYDNTTR [RPO21], the protein stability index (doa10∆) was 1.46 ± 0.061, the protein stability index (pdr5∆) stood at 1.91 ± 0.062, the protein stability index (san1∆) was determined as 1.32 ± 0.086 and the protein stability index (ubr1∆) is 1.68 ± 0.072.
For the sequence FLQSQRQQQQRSILQSL [SWI1], the protein stability index is 1.8 ± 0.062 (doa10∆), 1.92 ± 0.073 (pdr5∆), 1.41 ± 0.087 (san1∆) and 1.55 ± 0.054 (ubr1∆).
As to TFHDELNLKFKEKWPSL [YML103C/NUP188], the protein stability index amounted to 3.23 ± 0.095 (doa10∆), 3.57 ± 0.2 (pdr5∆), 2.81 ± 0.082 (san1∆) and 3.09 ± 0.098 (ubr1∆).
As for GQPVNDFIDTATRHVLM [RPS3], the protein stability index worked out at 2.96 ± 0.081 (doa10∆), 3.02 ± 0.06 (pdr5∆), 3.1 ± 0.051 (san1∆) and 2.96 ± 0.07 (ubr1∆).
EITSVLSNLHESNKRYR [SNF12]: the protein stability index runs as follows: (doa10∆) 3.1 ± 0.085; (pdr5∆) 3.05 ± 0.071; (san1∆) 2.94 ± 0.054; (ubr1∆) 3.08 ± 0.052.
For AKNIISNVLDGNKNQFE [LRP1], in that order: 2.46 ± 0.056, 2.77 ± 0.049, 2.92 ± 0.045 and 3.23 ± 0.049.
With LAPNMQLNGNETFSTSA [SNF2], the protein stability index by setting is: (doa10∆) 3.15 ± 0.14; (pdr5∆) 3.17 ± 0.11; (san1∆) 3.29 ± 0.068; (ubr1∆) 2.92 ± 0.096.
As to FEKKLSIIKAKLPLLNE [YML103C/NUP188], the protein stability index runs as follows: (doa10∆) 2.34 ± 0.095; (pdr5∆) 1.98 ± 0.13; (san1∆) 1.85 ± 0.23; (ubr1∆) 1.69 ± 0.068.
Consider QWGKYQTFGVDILAKLF [SWI1], for which the protein stability index runs as follows: (doa10∆) 2.25 ± 0.079; (pdr5∆) 2.54 ± 0.063; (san1∆) 2.43 ± 0.062; (ubr1∆) 2.27 ± 0.053.
For LIGRPPLLVPGMTPCTV [FAS1], in that order: 1.32 ± 0.071, 1.82 ± 0.079, 1.81 ± 0.11 and 2.15 ± 0.06.
MTLKEMYQMITMGGNAE [SMC4]: the protein stability index was determined as 2.72 ± 0.065 (doa10∆), 2.41 ± 0.056 (pdr5∆), 2.44 ± 0.058 (san1∆) and 2.77 ± 0.068 (ubr1∆).
For KSTDNSAIRQVFERFKT [IRR1], the protein stability index by setting is: (doa10∆) 2.21 ± 0.046; (pdr5∆) 2.7 ± 0.046; (san1∆) 2.19 ± 0.062; (ubr1∆) 2.8 ± 0.045.
With EPLSDTEEPDLAIADVE [DSN1], the protein stability index reads like this: (doa10∆) 2.96 ± 0.081; (pdr5∆) 2.81 ± 0.067; (san1∆) 3.09 ± 0.043; (ubr1∆) 3.24 ± 0.099.
In the case of ENDEEFYKNKYSSKPYK [RPN2], the protein stability index reads like this: (doa10∆) 2.4 ± 0.062; (pdr5∆) 2.61 ± 0.097; (san1∆) 2.36 ± 0.12; (ubr1∆) 2.19 ± 0.17.
Taken in the same sequence, the figures for NRTMDGKPVSLPLLYNF [FAS1] were 3.08 ± 0.093, 3.31 ± 0.1, 2.7 ± 0.072 and 2.93 ± 0.073.
Consider LLQEGGSLSGNSSSMEE [ESC2], for which the protein stability index reads like this: (doa10∆) 2.97 ± 0.11; (pdr5∆) 2.67 ± 0.16; (san1∆) 2.38 ± 0.13; (ubr1∆) 2.64 ± 0.096.
As to FINNVLSNPSNQNICTS [GRR1], the protein stability index (doa10∆) turned out to be 2.42 ± 0.074, the protein stability index (pdr5∆) came to 2.31 ± 0.033, the protein stability index (san1∆) is 2.53 ± 0.054 and the protein stability index (ubr1∆) is 2.47 ± 0.037.
With LELMDSKKTGQFNAQGV [POP1], the protein stability index runs as follows: (doa10∆) 3.54 ± 0.12; (pdr5∆) 3.6 ± 0.077; (ubr1∆) 3.48 ± 0.092.
Turning to NDLEVGVATKDKFFTLS [SCL1], the protein stability index turned out to be 3.18 ± 0.084 (doa10∆), 3.33 ± 0.067 (pdr5∆), 3.08 ± 0.072 (san1∆) and 2.89 ± 0.12 (ubr1∆).
